In paper PMC9328315, “Streptococcus pneumoniae binds collagens and C1q via the SSURE repeats of the PfbB adhesin” (Molecular Microbiology, 2022):

Experiments:
Assay in all cases: ELISA; titration: wells sensitized with 1 μg/ml of collagen type I, II, III, IV, VI or C1q; increasing concentrations of C‐SSURE or N‐SSURE (0,016–10 μg/ml), detected with anti‐His antibody; dissociation constants calculated from the titration curves (Figure 3c,d)
[1] = biological target: complement component C1q (human) (UniProt P02745)
complement component C1q (human), sequence (P02745 23-245, chain 1 of 3): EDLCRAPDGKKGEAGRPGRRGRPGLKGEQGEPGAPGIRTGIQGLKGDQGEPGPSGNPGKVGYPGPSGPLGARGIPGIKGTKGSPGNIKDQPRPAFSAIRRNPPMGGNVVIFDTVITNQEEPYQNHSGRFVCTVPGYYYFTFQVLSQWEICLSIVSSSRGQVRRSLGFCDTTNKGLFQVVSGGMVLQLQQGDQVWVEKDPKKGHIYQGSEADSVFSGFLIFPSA
complement component C1q (human), sequence (P02746 28-253, chain 2 of 3, further chain): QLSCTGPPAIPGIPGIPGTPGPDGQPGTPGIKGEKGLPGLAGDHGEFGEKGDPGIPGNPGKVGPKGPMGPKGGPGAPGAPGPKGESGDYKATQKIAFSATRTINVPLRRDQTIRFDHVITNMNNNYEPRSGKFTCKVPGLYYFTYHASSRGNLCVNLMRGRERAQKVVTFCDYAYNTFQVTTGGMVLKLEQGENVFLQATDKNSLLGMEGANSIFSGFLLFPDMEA
complement component C1q (human), sequence (P02747 29-245, chain 3 of 3, further chain): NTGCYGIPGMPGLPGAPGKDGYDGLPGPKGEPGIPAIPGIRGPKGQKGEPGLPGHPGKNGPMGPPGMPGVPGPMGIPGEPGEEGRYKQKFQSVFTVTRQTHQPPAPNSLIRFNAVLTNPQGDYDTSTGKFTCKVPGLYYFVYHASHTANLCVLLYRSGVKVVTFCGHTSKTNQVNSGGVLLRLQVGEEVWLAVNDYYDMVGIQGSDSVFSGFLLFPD

[2] = biological target: type I collagen (calf (from calfskin)) (UniProt P02453)
[3] = biological target: type III collagen (calf (from calfskin)) (UniProt P04258)
type III collagen (calf (from calfskin)), sequence (P04258 whole entry): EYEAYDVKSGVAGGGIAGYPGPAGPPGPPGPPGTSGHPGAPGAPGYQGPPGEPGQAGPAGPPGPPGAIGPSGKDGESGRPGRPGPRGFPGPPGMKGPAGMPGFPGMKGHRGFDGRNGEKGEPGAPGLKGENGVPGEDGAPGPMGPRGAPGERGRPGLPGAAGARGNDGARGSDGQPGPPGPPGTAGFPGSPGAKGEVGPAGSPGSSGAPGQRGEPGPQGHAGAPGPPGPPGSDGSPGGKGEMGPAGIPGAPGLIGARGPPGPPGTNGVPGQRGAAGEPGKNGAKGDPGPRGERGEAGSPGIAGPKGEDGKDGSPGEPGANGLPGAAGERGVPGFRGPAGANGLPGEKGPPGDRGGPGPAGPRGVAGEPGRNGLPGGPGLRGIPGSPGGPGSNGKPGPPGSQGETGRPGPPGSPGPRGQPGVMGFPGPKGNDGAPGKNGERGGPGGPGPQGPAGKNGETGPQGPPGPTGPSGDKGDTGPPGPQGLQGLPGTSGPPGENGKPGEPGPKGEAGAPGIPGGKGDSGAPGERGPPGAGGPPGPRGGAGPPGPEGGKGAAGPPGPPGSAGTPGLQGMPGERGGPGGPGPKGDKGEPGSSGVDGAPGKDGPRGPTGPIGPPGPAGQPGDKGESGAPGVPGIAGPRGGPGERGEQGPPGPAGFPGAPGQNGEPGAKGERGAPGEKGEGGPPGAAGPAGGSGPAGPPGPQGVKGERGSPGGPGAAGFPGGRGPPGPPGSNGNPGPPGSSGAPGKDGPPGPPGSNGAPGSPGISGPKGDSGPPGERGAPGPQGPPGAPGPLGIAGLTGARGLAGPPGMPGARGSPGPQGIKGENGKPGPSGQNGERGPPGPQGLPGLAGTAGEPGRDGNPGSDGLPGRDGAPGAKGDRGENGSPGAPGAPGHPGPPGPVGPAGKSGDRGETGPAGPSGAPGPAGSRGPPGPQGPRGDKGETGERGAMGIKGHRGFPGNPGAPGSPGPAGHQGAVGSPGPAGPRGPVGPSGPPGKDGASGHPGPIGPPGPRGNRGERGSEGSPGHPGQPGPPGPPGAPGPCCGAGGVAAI

human type IV collagen = human type IV collagen (human, UniProt P02462 173-1669; P08572 184-1712); conditions: both partners purified
human type IV collagen, sequence (P02462 173-1669, chain 1 of 2): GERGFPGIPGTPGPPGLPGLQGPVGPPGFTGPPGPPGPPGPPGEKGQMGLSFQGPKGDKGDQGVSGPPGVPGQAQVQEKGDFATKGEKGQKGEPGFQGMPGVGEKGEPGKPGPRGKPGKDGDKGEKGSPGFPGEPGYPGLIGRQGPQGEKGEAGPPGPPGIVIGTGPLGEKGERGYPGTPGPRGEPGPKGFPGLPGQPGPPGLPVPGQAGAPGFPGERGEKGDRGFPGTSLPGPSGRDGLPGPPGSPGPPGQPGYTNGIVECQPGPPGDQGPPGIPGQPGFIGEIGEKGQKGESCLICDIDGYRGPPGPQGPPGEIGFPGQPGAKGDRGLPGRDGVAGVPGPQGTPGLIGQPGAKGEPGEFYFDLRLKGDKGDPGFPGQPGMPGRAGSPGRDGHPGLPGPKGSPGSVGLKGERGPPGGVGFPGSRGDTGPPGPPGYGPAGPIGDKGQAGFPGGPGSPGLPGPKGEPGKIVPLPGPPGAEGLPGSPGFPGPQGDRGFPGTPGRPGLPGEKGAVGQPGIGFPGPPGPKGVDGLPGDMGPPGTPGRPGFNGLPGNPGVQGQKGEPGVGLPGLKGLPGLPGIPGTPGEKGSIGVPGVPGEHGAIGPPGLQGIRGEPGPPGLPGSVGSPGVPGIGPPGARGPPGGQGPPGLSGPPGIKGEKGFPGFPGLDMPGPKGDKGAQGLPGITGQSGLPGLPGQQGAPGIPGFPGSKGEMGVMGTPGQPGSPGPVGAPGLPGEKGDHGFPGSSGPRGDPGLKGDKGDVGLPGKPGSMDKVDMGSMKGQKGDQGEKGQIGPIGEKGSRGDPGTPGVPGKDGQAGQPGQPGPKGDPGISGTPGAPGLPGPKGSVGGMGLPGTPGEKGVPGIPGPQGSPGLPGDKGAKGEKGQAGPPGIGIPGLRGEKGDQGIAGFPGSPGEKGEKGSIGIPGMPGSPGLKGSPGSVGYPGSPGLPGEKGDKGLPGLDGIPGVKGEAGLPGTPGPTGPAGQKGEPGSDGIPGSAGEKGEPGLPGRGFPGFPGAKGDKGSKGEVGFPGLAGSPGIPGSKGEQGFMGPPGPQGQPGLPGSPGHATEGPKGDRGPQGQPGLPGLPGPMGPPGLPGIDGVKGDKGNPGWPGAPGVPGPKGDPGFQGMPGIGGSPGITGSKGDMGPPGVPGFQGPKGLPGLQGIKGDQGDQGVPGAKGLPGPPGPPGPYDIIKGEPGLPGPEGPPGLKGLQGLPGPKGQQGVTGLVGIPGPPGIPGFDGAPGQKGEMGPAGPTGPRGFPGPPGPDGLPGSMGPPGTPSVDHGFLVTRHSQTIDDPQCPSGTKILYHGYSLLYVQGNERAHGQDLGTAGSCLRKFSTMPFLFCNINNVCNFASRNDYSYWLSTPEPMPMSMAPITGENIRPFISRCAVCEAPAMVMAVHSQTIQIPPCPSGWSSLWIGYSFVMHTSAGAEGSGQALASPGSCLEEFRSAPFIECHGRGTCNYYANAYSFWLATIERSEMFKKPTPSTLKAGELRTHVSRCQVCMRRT
human type IV collagen, sequence (P08572 184-1712, chain 2 of 2): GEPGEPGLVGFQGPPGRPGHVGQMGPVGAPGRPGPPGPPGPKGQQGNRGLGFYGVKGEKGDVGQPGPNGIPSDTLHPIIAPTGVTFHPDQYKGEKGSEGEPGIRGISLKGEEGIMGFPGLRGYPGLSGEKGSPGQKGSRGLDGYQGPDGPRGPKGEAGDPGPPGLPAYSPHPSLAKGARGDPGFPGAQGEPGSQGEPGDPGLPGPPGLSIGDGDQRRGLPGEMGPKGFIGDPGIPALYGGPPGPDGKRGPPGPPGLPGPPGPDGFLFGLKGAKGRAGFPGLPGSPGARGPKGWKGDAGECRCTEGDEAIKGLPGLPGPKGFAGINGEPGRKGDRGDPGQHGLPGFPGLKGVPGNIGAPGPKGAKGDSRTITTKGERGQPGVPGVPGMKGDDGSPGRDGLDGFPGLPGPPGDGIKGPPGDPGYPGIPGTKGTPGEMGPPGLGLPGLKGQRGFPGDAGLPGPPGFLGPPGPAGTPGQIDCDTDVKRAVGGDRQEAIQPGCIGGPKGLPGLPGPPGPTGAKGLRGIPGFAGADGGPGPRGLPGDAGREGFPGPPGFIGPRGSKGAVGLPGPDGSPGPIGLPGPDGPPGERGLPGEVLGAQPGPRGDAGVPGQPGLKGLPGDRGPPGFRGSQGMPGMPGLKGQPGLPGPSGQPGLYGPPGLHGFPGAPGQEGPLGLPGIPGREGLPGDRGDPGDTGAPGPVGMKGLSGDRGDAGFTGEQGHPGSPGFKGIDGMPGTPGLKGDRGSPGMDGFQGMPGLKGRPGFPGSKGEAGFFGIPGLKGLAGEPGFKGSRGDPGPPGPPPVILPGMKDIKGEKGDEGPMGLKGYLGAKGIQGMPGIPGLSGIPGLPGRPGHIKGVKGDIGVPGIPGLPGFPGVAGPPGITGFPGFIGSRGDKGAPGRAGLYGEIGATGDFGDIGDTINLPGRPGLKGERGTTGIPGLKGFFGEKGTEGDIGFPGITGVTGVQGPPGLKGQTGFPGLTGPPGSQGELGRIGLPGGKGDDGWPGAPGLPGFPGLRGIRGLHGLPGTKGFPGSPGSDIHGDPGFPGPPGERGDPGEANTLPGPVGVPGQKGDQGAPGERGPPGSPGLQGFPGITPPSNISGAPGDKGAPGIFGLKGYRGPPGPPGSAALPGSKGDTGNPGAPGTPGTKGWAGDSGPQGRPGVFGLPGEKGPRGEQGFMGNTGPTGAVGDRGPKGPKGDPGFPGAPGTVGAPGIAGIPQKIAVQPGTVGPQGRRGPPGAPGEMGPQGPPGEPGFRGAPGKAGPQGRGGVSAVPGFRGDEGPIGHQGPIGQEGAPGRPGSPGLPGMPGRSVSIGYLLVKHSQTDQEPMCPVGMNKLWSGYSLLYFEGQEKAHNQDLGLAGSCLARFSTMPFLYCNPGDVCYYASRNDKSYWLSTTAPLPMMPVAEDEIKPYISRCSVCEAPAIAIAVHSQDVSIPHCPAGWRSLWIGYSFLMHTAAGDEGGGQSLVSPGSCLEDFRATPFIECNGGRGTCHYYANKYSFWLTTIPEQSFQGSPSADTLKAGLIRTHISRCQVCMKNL

human type VI collagen = human type VI collagen (human, UniProt P12109 20-1028; P12110 21-1019; P12111 26-3177); conditions: both partners purified

Molecule: C‐SSURE, recombinant polyhistidine‐tagged polypeptide encompassing amino acids 902–1053 (C‐terminal SSURE domain) of the PfbB protein (domain or fragment)
- Kd [1]: 5.21 µM
- Kd [2]: 1720 nM
- Kd [3]: 1160 nM

B1: N‐SSURE, recombinant polyhistidine‐tagged polypeptide encompassing amino acids 144–293 (N‐terminal SSURE domain) of the PfbB protein (domain or fragment)
chain: AETTPEQVKGGVKENTKDSIDVPAAYLEKAEGKGPFTAGVNQVIPYELFAGDGMLTRLLLKASDNAPWSDNGTAKNPALPPLEGLTKGKYFYEVDLNGNTVGKQGQALIDQLRANGTQTYKATVKVYGNKDGKADLTNLVATKNVDININ
notes: also called N‐terminal repeat; SSURE 1
- Kd (human type IV collagen): 1580 ± 100 nM
- Kd (human type VI collagen): 1200 ± 300 nM
